Measurements as given in patent publication US20240409647A1 (SINOMAB BIOSCIENCE, published 2024).

Legend:
[1] = target: T1, human IL-17 receptor subunit C (human, UniProt Q8NAC3-2 21-467, limits assumed); assay: ELISA, coated receptor; SM17 at 0.00064 µg/mL; well 2
T1 construct: also called IL17RC; hIL17RC
T1 sequence (looked up): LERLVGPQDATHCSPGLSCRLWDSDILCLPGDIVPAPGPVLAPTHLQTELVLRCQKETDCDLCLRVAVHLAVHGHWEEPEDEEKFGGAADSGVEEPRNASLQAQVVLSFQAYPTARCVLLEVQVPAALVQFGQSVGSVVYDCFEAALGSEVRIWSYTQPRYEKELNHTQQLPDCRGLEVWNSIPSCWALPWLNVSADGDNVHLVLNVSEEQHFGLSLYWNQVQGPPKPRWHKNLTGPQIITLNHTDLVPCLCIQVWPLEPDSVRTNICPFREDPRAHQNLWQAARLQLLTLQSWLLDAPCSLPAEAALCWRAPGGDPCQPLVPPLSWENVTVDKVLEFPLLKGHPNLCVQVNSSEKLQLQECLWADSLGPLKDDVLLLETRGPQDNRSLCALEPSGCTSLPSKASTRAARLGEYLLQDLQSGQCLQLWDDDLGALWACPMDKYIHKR

[2] = target: T2, human IL-17 receptor subunit E (human, UniProt Q8NFR9 24-454, limits assumed); assay: as above
T2 construct: also called hIL17RE
T2 sequence (looked up): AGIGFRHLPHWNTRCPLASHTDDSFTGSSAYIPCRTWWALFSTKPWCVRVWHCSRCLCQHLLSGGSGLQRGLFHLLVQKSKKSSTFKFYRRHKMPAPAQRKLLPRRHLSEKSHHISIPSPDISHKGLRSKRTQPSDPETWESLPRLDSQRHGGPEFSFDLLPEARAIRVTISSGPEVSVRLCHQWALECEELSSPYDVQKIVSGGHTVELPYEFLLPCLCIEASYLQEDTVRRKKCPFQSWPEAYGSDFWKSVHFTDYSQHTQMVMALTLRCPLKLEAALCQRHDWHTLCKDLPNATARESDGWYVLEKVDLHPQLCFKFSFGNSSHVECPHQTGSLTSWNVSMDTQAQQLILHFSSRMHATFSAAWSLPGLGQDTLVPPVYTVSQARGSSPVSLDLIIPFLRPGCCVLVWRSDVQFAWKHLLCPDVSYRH

[3] = target: T3, human IL-17RB protein (recombinant, R&D systems) (human); assay: as above
T3 construct: Bought protein; also called hIL17RB
T3 sequence (Q9NRM6 whole entry, looked up): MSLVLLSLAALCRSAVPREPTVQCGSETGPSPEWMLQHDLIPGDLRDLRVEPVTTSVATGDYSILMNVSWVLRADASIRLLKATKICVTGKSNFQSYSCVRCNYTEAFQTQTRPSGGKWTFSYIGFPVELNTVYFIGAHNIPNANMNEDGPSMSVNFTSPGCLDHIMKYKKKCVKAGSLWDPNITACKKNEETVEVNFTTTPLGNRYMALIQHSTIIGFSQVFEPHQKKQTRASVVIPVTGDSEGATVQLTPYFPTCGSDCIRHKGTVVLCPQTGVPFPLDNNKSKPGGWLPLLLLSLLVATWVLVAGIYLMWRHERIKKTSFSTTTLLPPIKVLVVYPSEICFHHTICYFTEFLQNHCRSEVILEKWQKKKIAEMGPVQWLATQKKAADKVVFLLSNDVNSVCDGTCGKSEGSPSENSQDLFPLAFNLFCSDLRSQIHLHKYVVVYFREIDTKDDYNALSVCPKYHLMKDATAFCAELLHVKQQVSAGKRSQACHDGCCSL

[4] = target: T4, human IL-17 receptor subunit D (human, UniProt Q8NFM7 28-299, limits assumed); assay: as above
T4 construct: also called IL17RD; hIL 17RD
T4 sequence (looked up): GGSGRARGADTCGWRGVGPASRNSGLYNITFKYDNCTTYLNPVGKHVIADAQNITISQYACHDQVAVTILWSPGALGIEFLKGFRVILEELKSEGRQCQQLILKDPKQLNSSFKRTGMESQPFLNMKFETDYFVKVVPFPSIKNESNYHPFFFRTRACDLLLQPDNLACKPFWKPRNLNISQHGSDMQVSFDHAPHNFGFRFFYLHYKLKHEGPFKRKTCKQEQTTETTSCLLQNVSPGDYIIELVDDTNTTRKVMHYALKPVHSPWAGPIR

[5] = target: T5, human IL-17 receptor subunit A (human, UniProt Q96F46 33-320); assay: as above
T5 construct: also called IL17RA; hIL17RA

[6] = target: T1, human IL-17 receptor subunit C; assay: ELISA, coated receptor; SM17 at 0.016 µg/mL; well 1
[7] = target: T2, human IL-17 receptor subunit E; assay: as above
[8] = target: T3, human IL-17RB protein (recombinant, R&D …); assay: as above
[9] = target: T4, human IL-17 receptor subunit D; assay: as above
[10] = target: T5, human IL-17 receptor subunit A; assay: as above

OD 450 nm Absorption [1]: 0.08 OD450
OD 450 nm Absorption [2]: -0.16 OD450
OD 450 nm Absorption [3]: 0.07 OD450
OD 450 nm Absorption [4]: 0.02 OD450
OD 450 nm Absorption [5]: 0.05 OD450
OD 450 nm Absorption [6]: 0.09 OD450
OD 450 nm Absorption [7]: 0 OD450
OD 450 nm Absorption [8]: 0.35 OD450
OD 450 nm Absorption [9]: 0.07 OD450
OD 450 nm Absorption [10]: 0.01 OD450
B1: SM17 (antibody, human IgG4 S228P, kappa, V domains shown)
VH: QVQLVQSGAEVKKPGASVKVSCKASGYTFISYWMNWVRQAPGQGLEWMGRIDPYDSEIQYNQKFKDRVTMTRDTSISTAYMELSRLRSDDTAVYYCARSGGFDWFAYWGQGTLVTVSS
VL: DIQMTQSPSSLSASVGDRVTITCRASENINSNLAWYQQKPGKAPKLLLYDVTNLADGVPSRFSGSGSGTDYTLTISSLQPEDFATYYCQHFWGPPYTFGGGTKVEIKR
notes: other paragraphs and claim 15 call the same entries VH and VL; also called humanized anti-IL17RB monoclonal antibody
